Common to all, as to experiment: cell-based or functional assay
For experiment [1], the target named is T1, ADAMTS4 (human, UniProt O75173 213-685, limits assumed).
T1 sequence (looked up): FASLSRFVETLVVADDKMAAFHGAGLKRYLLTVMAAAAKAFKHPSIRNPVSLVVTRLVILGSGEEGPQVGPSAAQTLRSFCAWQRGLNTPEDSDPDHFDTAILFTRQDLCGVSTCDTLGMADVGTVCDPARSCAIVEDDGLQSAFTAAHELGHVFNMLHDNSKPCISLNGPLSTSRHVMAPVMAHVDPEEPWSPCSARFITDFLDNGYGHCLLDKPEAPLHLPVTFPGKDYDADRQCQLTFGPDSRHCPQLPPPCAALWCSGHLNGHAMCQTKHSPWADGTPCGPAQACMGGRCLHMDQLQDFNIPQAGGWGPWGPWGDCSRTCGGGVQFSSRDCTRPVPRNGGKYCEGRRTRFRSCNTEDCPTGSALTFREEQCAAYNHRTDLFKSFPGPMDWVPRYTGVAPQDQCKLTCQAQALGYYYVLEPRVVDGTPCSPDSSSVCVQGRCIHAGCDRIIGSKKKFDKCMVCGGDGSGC

Experiment [2] addresses T2, ADAMTS5 (human, UniProt Q9UNA0 262-622, limits assumed).
T2 sequence (looked up): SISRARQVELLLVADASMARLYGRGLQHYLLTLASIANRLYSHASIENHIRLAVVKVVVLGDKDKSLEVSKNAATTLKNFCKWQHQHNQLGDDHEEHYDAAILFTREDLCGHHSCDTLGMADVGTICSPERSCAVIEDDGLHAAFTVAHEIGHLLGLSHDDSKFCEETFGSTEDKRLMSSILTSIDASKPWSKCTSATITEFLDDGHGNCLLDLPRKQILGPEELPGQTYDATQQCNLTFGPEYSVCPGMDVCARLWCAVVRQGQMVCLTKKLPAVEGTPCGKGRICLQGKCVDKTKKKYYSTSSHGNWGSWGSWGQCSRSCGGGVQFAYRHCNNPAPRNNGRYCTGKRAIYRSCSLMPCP

Experiment [3] has as its target T3, MMP1 (human, UniProt P03956 100-469, limits assumed).
T3 sequence (looked up): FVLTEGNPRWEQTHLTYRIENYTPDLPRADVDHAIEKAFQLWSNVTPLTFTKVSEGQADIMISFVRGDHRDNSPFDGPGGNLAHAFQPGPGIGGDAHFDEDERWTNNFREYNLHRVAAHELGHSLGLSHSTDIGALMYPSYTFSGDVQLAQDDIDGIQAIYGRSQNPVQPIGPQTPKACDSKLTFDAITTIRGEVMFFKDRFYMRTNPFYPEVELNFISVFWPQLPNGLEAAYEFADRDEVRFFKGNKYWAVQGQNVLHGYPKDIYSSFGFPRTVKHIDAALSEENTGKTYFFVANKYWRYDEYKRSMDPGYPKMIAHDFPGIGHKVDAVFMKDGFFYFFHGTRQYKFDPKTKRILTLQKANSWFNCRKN

Experiment [4] concerns the target MMP8 (human, UniProt P22894 101-467, limits assumed).
For experiment [5], the target named is MMP13 (human, UniProt P45452 104-471, limits assumed).
Experiment [6] has as its target T4, MMP2 (human, UniProt P08253 110-660, limits assumed).
T4 sequence (looked up): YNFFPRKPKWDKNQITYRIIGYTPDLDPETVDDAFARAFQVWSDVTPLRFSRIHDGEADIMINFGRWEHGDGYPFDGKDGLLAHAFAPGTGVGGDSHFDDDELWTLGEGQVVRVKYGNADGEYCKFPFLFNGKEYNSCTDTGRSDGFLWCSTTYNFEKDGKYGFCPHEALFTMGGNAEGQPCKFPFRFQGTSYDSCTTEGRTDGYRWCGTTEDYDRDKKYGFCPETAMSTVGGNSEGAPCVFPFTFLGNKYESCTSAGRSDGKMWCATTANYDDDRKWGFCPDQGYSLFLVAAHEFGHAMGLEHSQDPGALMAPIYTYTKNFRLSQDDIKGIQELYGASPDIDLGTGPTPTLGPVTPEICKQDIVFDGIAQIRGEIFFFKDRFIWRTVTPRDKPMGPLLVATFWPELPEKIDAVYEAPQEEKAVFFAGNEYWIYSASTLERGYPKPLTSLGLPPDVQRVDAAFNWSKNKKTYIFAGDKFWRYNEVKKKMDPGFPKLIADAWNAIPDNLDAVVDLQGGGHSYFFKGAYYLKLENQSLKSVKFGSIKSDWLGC

The target in experiment [7] is MMP9 (human, UniProt P14780 107-707, limits assumed).
MMP9, sequence (P14780 107-707 limits assumed): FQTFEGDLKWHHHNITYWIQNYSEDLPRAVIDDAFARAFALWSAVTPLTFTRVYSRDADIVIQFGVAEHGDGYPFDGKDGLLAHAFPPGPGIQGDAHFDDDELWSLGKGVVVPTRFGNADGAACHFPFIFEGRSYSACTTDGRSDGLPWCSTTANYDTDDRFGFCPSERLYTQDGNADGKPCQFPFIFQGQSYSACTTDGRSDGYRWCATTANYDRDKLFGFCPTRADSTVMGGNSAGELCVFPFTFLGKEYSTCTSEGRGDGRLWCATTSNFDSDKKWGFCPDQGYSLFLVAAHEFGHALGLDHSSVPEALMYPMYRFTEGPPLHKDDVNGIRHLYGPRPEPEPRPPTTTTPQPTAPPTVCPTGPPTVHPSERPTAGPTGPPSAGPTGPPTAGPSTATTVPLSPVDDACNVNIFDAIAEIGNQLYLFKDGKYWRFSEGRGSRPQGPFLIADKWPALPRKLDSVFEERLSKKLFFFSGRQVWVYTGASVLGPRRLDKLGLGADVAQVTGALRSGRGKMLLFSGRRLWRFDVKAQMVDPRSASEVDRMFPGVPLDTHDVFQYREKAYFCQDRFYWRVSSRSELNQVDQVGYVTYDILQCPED
The target in experiment [8] is MMP3 (human, UniProt P08254 100-477, limits assumed).
MMP3, sequence (P08254 100-477 limits assumed): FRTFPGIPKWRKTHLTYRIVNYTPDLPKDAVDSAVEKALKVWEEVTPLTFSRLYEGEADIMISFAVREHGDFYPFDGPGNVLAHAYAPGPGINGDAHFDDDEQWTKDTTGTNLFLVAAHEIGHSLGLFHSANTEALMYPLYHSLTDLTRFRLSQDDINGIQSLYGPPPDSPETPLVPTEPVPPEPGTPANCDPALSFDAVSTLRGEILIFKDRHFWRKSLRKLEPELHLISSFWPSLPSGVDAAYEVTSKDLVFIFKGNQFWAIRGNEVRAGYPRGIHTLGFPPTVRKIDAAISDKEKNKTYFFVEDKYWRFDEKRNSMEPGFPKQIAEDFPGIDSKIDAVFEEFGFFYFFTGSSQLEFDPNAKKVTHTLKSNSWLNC
Experiment [9] deals with Elastase.
The target of experiment [10] is T5, Cathepsin G (UniProt P08311 21-244).
T5 sequence (looked up): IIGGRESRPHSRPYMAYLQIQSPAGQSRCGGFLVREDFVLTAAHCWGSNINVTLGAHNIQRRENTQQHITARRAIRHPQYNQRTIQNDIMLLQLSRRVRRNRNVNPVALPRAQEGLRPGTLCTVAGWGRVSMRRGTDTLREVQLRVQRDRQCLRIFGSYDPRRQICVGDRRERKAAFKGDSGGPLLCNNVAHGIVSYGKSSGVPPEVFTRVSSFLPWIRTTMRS

The target in experiment [11] is T6, MMP7 (UniProt P09237 95-267, limits assumed).
T6 sequence (looked up): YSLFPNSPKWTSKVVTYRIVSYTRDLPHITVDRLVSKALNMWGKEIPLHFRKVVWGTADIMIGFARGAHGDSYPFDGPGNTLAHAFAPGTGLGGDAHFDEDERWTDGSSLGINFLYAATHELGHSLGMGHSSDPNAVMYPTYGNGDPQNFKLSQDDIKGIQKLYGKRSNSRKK

Some results are limits rather than exact numbers.

MMP8, sequence (P22894 101-467 limits assumed): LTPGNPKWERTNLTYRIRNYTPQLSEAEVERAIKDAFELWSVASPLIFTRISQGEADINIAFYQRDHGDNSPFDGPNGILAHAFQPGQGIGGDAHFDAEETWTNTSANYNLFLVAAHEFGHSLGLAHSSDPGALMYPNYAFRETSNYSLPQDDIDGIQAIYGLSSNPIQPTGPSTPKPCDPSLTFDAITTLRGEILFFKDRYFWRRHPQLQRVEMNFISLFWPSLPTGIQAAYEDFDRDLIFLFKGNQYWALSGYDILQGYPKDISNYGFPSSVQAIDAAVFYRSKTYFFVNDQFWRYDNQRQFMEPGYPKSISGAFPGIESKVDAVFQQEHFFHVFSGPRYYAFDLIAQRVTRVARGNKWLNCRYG

B1: Variant A2M, bait region SEQ ID NO 30 (other)
chain: SVSGKPQYMVLVPSLLHTETTEKGCVLLSYLNETVTVSASLESVRGNRSLFTDLEAENDVLHCVAFAVPKSSSNEEVMFLTVQVKGPTQEFKKRTTVMVKNEDSLVFVQTDKSIYKPGQTVKFRVVSMDENFHPLNELIPLVYIQDPKGNRIAQWQSFQLEGGLKQFSFPLSSEPFQGSYKVVVQKKSGGRTEHPFTVEEFVLPKFEVQVTVPKIITILEEEMNVSVCGLYTYGKPVPGHVTVSICRKYSDASDCHGEDSQAFCEKFSGQLNSHGCFYQQVKTKVFQLKRKEYEMKLHTEAQIQEEGTVVELTGRQSSEITRTITKLSFVKVDSHFRQGIPFFGQVRLVDGKGVPIPNKVIFIRGNEANYYSNATTDEHGLVQFSINTTNVMGTSLTVRVNYKDRSPCYGYQWVSEEHEEAHHTAYLVFSPSKSFVHLEPMSHELPCGHTQTVQAHYILNGGTLLGLKKLSFYYLIMAKGGIVRTGTHGLLVKQEDMKGHFSISIPVKSDIAPVARLLIYAVLPTGDVIGDSAKYDVENCLANKVDLSFSPSQSLPASHAHLRVTAAPQSVCALRAVDQSVLLMKPDAELSASSVYNLLPEKDLTGFPGPLNDQDDEDCINRHNVYINGITYTPVSSTNEKDMYSFLEDMGLKAFTNSKIRKPKMCPQLEQYEMHGPEGEGEGPRYLTAIPENFFGVSEDLVVQISELEGRGSPHTKLRKYFPETWIWDLVVVNSAGVAEVGVTVPDTITEWKAGAFCLSEDAGLGISSTASLRAFQPFFVELTMPYSVIRGEAFTLKATVLNYLPKCIRVSVQLEASPAFLAVPVEKEQAPHCICANGRQTVSWAVTPKSLGNVNFTVSAEALESQELCGTEVPSVPEHGRKDTVIKPLLVEPEGLEKETTFNSLLCPSGGEVSEELSLKLPPNVVEESARASVSVLGDILGSAMQNTQNLLQMPYGCGEQNMVLFAPNIYVLDYLNETQQLTPEIKSKAIGYLNTGYQRQLNYKHYDGSYSTFGERYGRNQGNTWLTAFVLKTFAQARAYIFIDEAHITQALIWLSQRQKDNGCFRSSGSLLNNAIKGGVEDEVTLSAYITIALLEIPLTVTHPVVRNALFCLESAWKTAQEGDHGSHVYTKALLAYAFALAGNQDKRKEVLKSLNEEAVKKDNSVHWERPQKPKAPVGHFYEPQAPSAEVEMTSYVLLAYLTAQPAPTSEDLTSATNIVKWITKQQNAQGGFSSTQDTVVALHALSKYGAATFTRTGKAAQVTIQSSGTFSSKFQVDNNNRLLLQQVSLPELPGEYSMKVTGEGCVYLQTSLKYNILPEKEEFPFALGVQTLPQTCDEPKAHTSFQISLSVSYTGSRSASNMAIVDVKMVSGFIPLKPTVKMLERSNHVSRTEVSSNHVLIYLDKVSNQTLSLFFTVLQDVPVRDLKPAIVKVYDYYETDEFAIAEYNAPCSKDLGNADYKDDDDKGASHHHHHH
As for B1, the “Protease Inhibition (% of WT)” value is 93 % of WT in experiment [1]; 296 % of WT in experiment [2]; 67 % of WT in experiment [3]; 29 % of WT in [4]; 96 % of WT in experiment [5]; 3 % of WT in experiment [6]. In addition, the “Protease Inhibition (% of WT)” value in [7] is 18 % of WT; in experiment [8], < 100 % of WT; in experiment [9] it was 55 % of WT; in experiment [10] it was 104 % of WT; in experiment [11], 91 % of WT.

B2: Variant A2M, bait region SEQ ID NO 28 (other)
chain: SVSGKPQYMVLVPSLLHTETTEKGCVLLSYLNETVTVSASLESVRGNRSLFTDLEAENDVLHCVAFAVPKSSSNEEVMFLTVQVKGPTQEFKKRTTVMVKNEDSLVFVQTDKSIYKPGQTVKFRVVSMDENFHPLNELIPLVYIQDPKGNRIAQWQSFQLEGGLKQFSFPLSSEPFQGSYKVVVQKKSGGRTEHPFTVEEFVLPKFEVQVTVPKIITILEEEMNVSVCGLYTYGKPVPGHVTVSICRKYSDASDCHGEDSQAFCEKFSGQLNSHGCFYQQVKTKVFQLKRKEYEMKLHTEAQIQEEGTVVELTGRQSSEITRTITKLSFVKVDSHFRQGIPFFGQVRLVDGKGVPIPNKVIFIRGNEANYYSNATTDEHGLVQFSINTTNVMGTSLTVRVNYKDRSPCYGYQWVSEEHEEAHHTAYLVFSPSKSFVHLEPMSHELPCGHTQTVQAHYILNGGTLLGLKKLSFYYLIMAKGGIVRTGTHGLLVKQEDMKGHFSISIPVKSDIAPVARLLIYAVLPTGDVIGDSAKYDVENCLANKVDLSFSPSQSLPASHAHLRVTAAPQSVCALRAVDQSVLLMKPDAELSASSVYNLLPEKDLTGFPGPLNDQDDEDCINRHNVYINGITYTPVSSTNEKDMYSFLEDMGLKAFTNSKIRKPKMCPQLEQYEMHGPEGEGEGEFRAAPFLTAIPENFFGVSEDLVVQISELEGRGSPHTKLRKYFPETWIWDLVVVNSAGVAEVGVTVPDTITEWKAGAFCLSEDAGLGISSTASLRAFQPFFVELTMPYSVIRGEAFTLKATVLNYLPKCIRVSVQLEASPAFLAVPVEKEQAPHCICANGRQTVSWAVTPKSLGNVNFTVSAEALESQELCGTEVPSVPEHGRKDTVIKPLLVEPEGLEKETTFNSLLCPSGGEVSEELSLKLPPNVVEESARASVSVLGDILGSAMQNTQNLLQMPYGCGEQNMVLFAPNIYVLDYLNETQQLTPEIKSKAIGYLNTGYQRQLNYKHYDGSYSTFGERYGRNQGNTWLTAFVLKTFAQARAYIFIDEAHITQALIWLSQRQKDNGCFRSSGSLLNNAIKGGVEDEVTLSAYITIALLEIPLTVTHPVVRNALFCLESAWKTAQEGDHGSHVYTKALLAYAFALAGNQDKRKEVLKSLNEEAVKKDNSVHWERPQKPKAPVGHFYEPQAPSAEVEMTSYVLLAYLTAQPAPTSEDLTSATNIVKWITKQQNAQGGFSSTQDTVVALHALSKYGAATFTRTGKAAQVTIQSSGTFSSKFQVDNNNRLLLQQVSLPELPGEYSMKVTGEGCVYLQTSLKYNILPEKEEFPFALGVQTLPQTCDEPKAHTSFQISLSVSYTGSRSASNMAIVDVKMVSGFIPLKPTVKMLERSNHVSRTEVSSNHVLIYLDKVSNQTLSLFFTVLQDVPVRDLKPAIVKVYDYYETDEFAIAEYNAPCSKDLGNADYKDDDDKGASHHHHHH
For the molecule B2, the “Protease Inhibition (% of WT)” value in experiment [1] is 180 % of WT; in [2] it was 398 % of WT; in experiment [3], 67 % of WT; in experiment [4], 38 % of WT; in experiment [5] it was 90 % of WT; in [6] it was 36 % of WT. Also, the “Protease Inhibition (% of WT)” value in experiment [7] was 14 % of WT; in experiment [8], 129 % of WT; in [9] it was 75 % of WT; in experiment [10], 69 % of WT; in [11] it was 94 % of WT.

These data come from patent US20230250154A1 (CYTONICS, published 2023).
